Target: T1, mouse insulin receptor (mouse, UniProt P15208 28-1372)
T1 construct: whole, on cells; also called muINSR; mINSR
Test: FACS on mouse INSR; conditions not given on the sheet

Row | Binder | binding result
1 | Ab014 (antibody, V domains shown, also called XPA.015.158) VH: EVQLLESGGGLVQPGGSLRLSCAASGFTFSNAWMSWVRQAPGKGLEWVSAISGSGGSTYYADSVKGRFTISRDNSKNTLYLQMNSLRAEDTAVYYCAAPTVPYYYYGMDVWGQGTLVTVSS VL: QSVLTQPPSASGTPGQRVTISCSGCSSNIGNNAVNWYQQLPGTAPKLLIYRSDQRLAGVPDRFSGSKSGTSASLAISGLRSEDEADYYCQSYDSSLIGHWVFGGGTKLTVLG | binds
2 | Ab017 (antibody, V domains shown, also called XPA.015.017) VH: EVQLLESGGGLVQPGGSLRLSCAASGFTFSSYSMNWVRQAPGKGLEWVSVIYSGDSTYYADSVKGRFTISRDNSKNTLYLQMNSLRAEDTAVYYCARQVRDGDYGDWFDPWGQGTLVTVSS VL: QSVLTQPPSASGTPGQRVTISCTGSSSNIGAGYDVHWYQQLPGTAPKLLIYGNSNRPSGVPDRFSGSKSGTSASLAISGLRSEDEADYYCAAWDDSLSGWVFGGGTKLTVLG | binds
3 | Ab030 (antibody, V domains shown, also called XPA.015.036) VH: EVQLLESGGGLVQPGGSLRLSCAASGFTFSSYSMNWVRQAPGKGLEWVSAISGSGGSTYYADSVKGRFTISRDNSKNTLYLQMNSLRAEDTAVYYCARDSWELLGYDAFDIWGQGTLVTVSS VL: QSVLTQPPSASGTPGQRVTISCTGSSSNIGAGYDVHWYQQLPGTAPKLLIYDNNKRPSGVPDRFSGSKSGTSASLAISGLRSEDEADYYCASWDDSHLHVLFGGGTKLTVLG | binds
4 | Ab032 (antibody, V domains shown, also called XPA.015.093) VH: EVQLLESGGGLVQPGGSLRLSCAASGFTFSNYAMGWVRQAPGKGLEWVSSISGSGGTTYYADSVKGRFTISRDNSKNTLYLQMNSLRAEDTAVYYCARHKGLQPLDYWGQGTLVTVSS VL: QSVLTQPPSASGTPGQRVTISCSGSISNIGSNYVSWYQQLPGTAPKLLIYGNSNRPSGVPDRFSGSKSGTSASLAISGLRSEDEADYYCAAWDDSLSPHVVFGGGTKLTVLG | binds
5 | Ab006 (antibody, V domains shown, also called XPA.015.013) VH: EVQLLESGGGLVQPGGSLRLSCAASGFTFSNYAMGWVRQAPGKGLEWVSSISGSGGTTYYADSVKGRFTISRDNSKNTLYLQMNSLRAEDTAVYYCARHKGLQPLDYWGQGTLVTVSS VL: QSVLTQPPSASGTPGQRVTISCSGSISNIGSNYVSWYQQLPGTAPKLLIYGNSNRPSGVPDRFSGSKSGTSASLAISGLRSEDEADYYCAAWDDSLSPHVVFGGGTKLTVLG | binds
6 | Ab011 (antibody, V domains shown, also called XPA.015.085) VH: EVQLLESGGGLVQPGGSLRLSCAASGFTFSNYAMGWVRQAPGKGLEWVSSISGSGGTTYYADSVKGRFTISRDNSKNTLYLQMNSLRAEDTAVYYCARHKGLQPLDYWGQGTLVTVSF VL: QSVLTQPPSASGTPGQRVTISCSGSISNIGSNYVSWYQQLPGTAPKLLIYGNSNRPSGVPDRFSGSKSGTSASLAISGLRSEDEADYYCAAWDDSLSPHVVFGGGTKLTVLG | binds
7 | Ab036 (antibody, V domains shown, also called XPA.015.047) VH: EVQLLESGGGLVQPGGSLRLSCAASGFTFSNYAMGWVRQAPGKGLEWVSSISGSGGTTYYADSVKGRFTISRDNSKNTLYLQMNSLRAEDTAVYYCARHKGLQPLDYWGQGTLVTVSS VL: QSVLTQPPSASGTPGQRVTISCSGSSSNIGGNSVHWYQQLPGTAPKLLIYGNSNRPSGVPDRFSGSKSGTSASLAISGLRSEDEADYYCAAWDDSLSPHVVFGGGTKLTVLG | binds
8 | Ab009 (antibody, V domains shown, also called XPA.015.075) VH: EVQLLESGGGLVQPWGSLRLSCAASGFTFSNYAMGWVRQAPGKGLEWVSSISGSGGTTYYADSVKGRFTISRDNSKNTPYLQMNSLRAEDTAVYYCARHKGLQPLDYWGQGTLVTVSS VL: QSVLTQPPSASGTPGQRVTISCSGSISNIGSNYVSWYQQLPGTAPKLLIYGNSNRPSGVPDRFSGSKSGTSASLAISGLRSEDEADYYCAAWDDSLSPHVVFGGGTKLTVLG | binds
9 | Ab018 (antibody, V domains shown, also called XPA.015.139) VH: EVQLLESGGGLVQPGGSLRLSCAASGFTFSSYWMSWVRQAPGKGLEWVSGISGSGGYIHYADSVKGRFTISRDDSKNTLYLQMNSLRAEDTAVYYCAREGSGWLVDQWGQGTLVTVSS VL: not shown | binds
10 | Ab038 (antibody, V domains shown, also called XPA.015.065) VH: EVQLLESGGGLVQPGGSLRLSCAASGFTFSNYAMTWVRQAPGKGLEWVSYIHAGGGTHYANSVKGRFTISRDNSKNTLYLQMNSLRAEDTAVYYCARDLHWEGWGLGFDYWGQGTLVTVSS VL: not shown | binds
11 | Ab039 (antibody, V domains shown, also called XPA.015.074) VH: EVQLLESGGGLVQPGGSLRLSCAASGFTFSSYWMSWVRQAPGKGLEWVSGISGSGGYTSYADSVKGRFTISRDNSKNTLYLQMNSLRAEDTAVYYCAKDSSDWYINSWGQGTLVTVSS VL: not shown | binds

Continued, values first:

Row | binding result | Binder
12 | no binding | Ab002 (antibody, V domains shown, also called XPA.015.190) VH: EVKLVESEEGLVKPGGSLKLSCAASGFTFSNYAMSWVRQTPEKRLEWVATISDGGHYTYYSDTIKGRFTISRDNAKNNLFLQLSHLKSEDTAIYYCARGTVFDYWGQGTTLTVSS VL: DIQMTQTTSSLSASLGDRVTISCRASQDISNYLNWYQQKPDGTVKLLIYYTSRLHSGVPSRFSGSGSGTDYSLTISNLEPEDIATFYCQQYSDLPYTFGGGTKLEIKR
13 | no binding | Ab026 (antibody, V domains shown, also called XPA.015.026) VH: EVQLLESGGGLVQPGGSLRLSCAASGFTFSNYVISWVRQAPGKGLEWVSAISGSGGSTFYPDSVKGRFTISRDNSKNTLYLQMNSLRAEDTAMYYCARVGLSGWYYFDYWGQGTLVTVSS VL: not shown
14 | no binding | Ab031 (antibody, V domains shown, printed on the sheet as Ab031` with a stray mark; also called XPA.015.037) VH: EVQLLESGGGLVQPGGSLRLSCAASGFTFSSNYMSWVRQAPGKGLEWVSSISGGSTYYADSRKGRFTISRDNSKNTLYLQMNSLRAEDTAVYYCARLDWSSGAFDIWGQGTLVTVSS VL: QSVLTQPPSASGTPGQRVTISCSGRSSNIGYNYVSWYQQLPGTAPKLLIYGNSNRPSGVPDRFSGSKSGTSASLAISGLRSEDEADYYCAAWDDSLSGPVFGGGTKLTVLG
15 | no binding | Ab024 (antibody, V domains shown, also called XPA.015.022) VH: EVQLLESGGGLVQPGGSLRLSCAASGFTFSDYYMSWIRRAPGKGLEWVSRISWNSGSIGYADSLKGRFTISRDNSKNTLYLQMNSLRAEDTAVYYCARERGYGYDYWGQGTLVTVSS VL: QSVLTQPPSASGTPGQRVTISCSGTSSNLGSHTVSWYQQLPGTAPKLLIYDNNERPSGVPDRFSGSKSGTSASLAISGLRSEDEADYYCAAWDDSLSAWVFGGGTKLTVLG
16 | no binding | Ab042 (antibody, V domains shown, also called XPA.015.086) VH: EVQLLESGGGLVQPGGSLRLSCAASGFTFSNYAMTWVRQAPGKGLEWVSYIHAGGGTHYANSVKGRFTISRDNSKNTLYLQMNSLRAEDTAVYYCARDLHWEGWGLGFDYWGQGTLVTVSS VL: not shown
17 | binds | Ab040 (antibody, V domains shown, also called XPA.015.077) VH: EVQLLESGGGLVQPGGSLRLSCAASGFTFSSYWMSWVRQAPGKGLEWVAVISKDGSSTDYAHSVKGRFTISRDNSKNTLYLQMNSLRAEDTAVYYCARDRDWIPGDVWGQGTLVTVSS VL: not shown

Reference: patent publication US20160009800A1 (XOMA US, published 2016)
